We go through five molecules from publication PMC3750173, “Ferredoxin Competes with Bacterial Frataxin in Binding to the Desulfurase IscS*^([image sbox.jpg])” (The Journal of Biological Chemistry, 2013).

The target of assay [1] is holo-Fdx (cluster-loaded E. coli ferredoxin) (E. coli) (UniProt P0A9R4). Description: BLI; biotinylated holo-Fdx on streptavidin biosensors, IscS 0-60 μM; 20 mM HEPES pH 7.5, 150 mM NaCl, 2 mM TCEP, 0.5 mg/ml BSA, 25 °C; Kd from the amplitude at equilibrium. (BLI is a label-free optical method that tracks binding on a fibre tip over time.)
Assay [2] shares this target. Put plainly: SAXS; solutions of 2.5-5.0 mg/ml at 10 °C; IscS alone and holo-Fdx·IscS complex.
The target of assay [3] is T1, IscS (E. coli desulfurase), wild type (E. coli, UniProt P0A6B7 1-404).
T1 construct: cysteine desulfurase IscS, E. coli; construct pET-11 IscS (EMBL-Hamburg); Dimer by SAXS; also called desulfurase IscS
Description: NMR titration; competition: holo-Fdx·IscS sample (with IscU added before) titrated with CyaY up to 3 molar excess over holo-Fdx; 20 mM Tris, 150 mM NaCl, 20 mM TCEP, pH 8, 298 K. Particulars: both partners purified.

The target in another assay is T2, IscS_D346K/E347K (E. coli, UniProt P0A6B7 1-404, D346K | E347K).
T2 construct: cysteine desulfurase IscS, E. coli; site-directed mutant of pET-11 IscS
Put plainly: NMR titration; 15N-SOFAST HMQC of [15N]- or [15N/2H]Fdx or Fdx mutants titrated with unlabelled IscS or IscS mutants; 20 mM Tris, 150 mM NaCl, 20 mM TCEP, pH 8, 298 K. Particulars: both partners purified.

The target in a further assay is T3, IscS_I314E/M315E (E. coli, UniProt P0A6B7 1-404, I314E | M315E).
T3 construct: cysteine desulfurase IscS, E. coli; site-directed mutant of pET-11 IscS
The description is as above. Particulars: both partners purified.

A further assay addresses T4, IscS_R112E/R116E (E. coli, UniProt P0A6B7 1-404, R112E | R116E).
T4 construct: cysteine desulfurase IscS, E. coli; site-directed mutant of pET-11 IscS; designed after the first round of docking
The assay is described as above. Particulars: both partners purified.

The target in assay [4] is T1, IscS (E. coli desulfurase), wild type. Described as above. Particulars: both partners purified.

The term Kd denotes the equilibrium constant for the complex coming apart.

Consider “IscS (E. coli desulfurase), wild type (from UniProt P0A6B7 1-404) (enzyme)”, for which, in assay [1], the Kd stood at 1.5 µM. In assay [2], this molecule registered a percent of free components of 10%, a percent of the complex (OLIGOMER fit) of 80% and a stoichiometry N (IscS:Fdx (2:2)) of 1.

B1: CyaY (bacterial ortholog of frataxin) (natural protein, E. coli, UniProt P27838 1-106, looked up)
chain: MNDSEFHRLADQLWLTIEERLDDWDGDSDIDCEINGGVLTITFENGSKIIINRQEPLHQVWLATKQGGYHFDLKGDEWICDRSGETFWDLLEQAATQQAGETVSFR
notes: CyaY, the bacterial ortholog of frataxin, E. coli; also called bacterial frataxin
B1: the binding result in assay [3] was “binds”.

B2: holo-Fdx (cluster-loaded E. coli ferredoxin) (natural protein)
chain: MPKIVILPHQDLCPDGAVLEANSGETILDAALRNGIEIEHACEKSCACTTCHCIVREGFDSLPESSEQEDDMLDKAWGLEPESRLSCQARVTDEDLVVEIPRYTINHAREH
modifications: [2Fe-2S] cluster bound (holo); biotinylated for BLI (site not stated); 15N or 15N/2H labelled for NMR
notes: ferredoxin (Fdx) of the isc operon, E. coli; fdx amplified from E. coli genomic DNA into a modified pET-24 vector; The same construct was used 15N- or 15N/2H-labelled in NMR and biotinylated on streptavidin biosensors in BLI; residues left after TEV cleavage and the NcoI site are not described; also called [15N]holo-Fdx; [15N/2H]holo-Fdx; source: E. coli, purified (nickel-nitrilotriacetic …)
Take B2: the binding result with IscS_D346K/E347K, with IscS_I314E/M315E and in the assay with IscS_R112E/R116E was “binds” each time.

B3: holo-Fdx_D11K (natural protein, E. coli)
chain: MPKIVILPHQKLCPDGAVLEANSGETILDAALRNGIEIEHACEKSCACTTCHCIVREGFDSLPESSEQEDDMLDKAWGLEPESRLSCQARVTDEDLVVEIPRYTINHAREH
modifications: [2Fe-2S] cluster bound (holo); 15N labelled
notes: ferredoxin (Fdx) of the isc operon, E. coli; mutant of the pET-24 construct; source: E. coli, purified (nickel-nitrilotriacetic acid-agarose, TEV cleavage, Superdex G75, MonoQ); not shown: GST, N-terminal, cleaved; His tag, N-terminal, cleaved
Take B3: the binding result in assay [4] is “binds”.

B4: holo-Fdx_E57K/D60K (natural protein, E. coli)
chain: MPKIVILPHQDLCPDGAVLEANSGETILDAALRNGIEIEHACEKSCACTTCHCIVRKGFKSLPESSEQEDDMLDKAWGLEPESRLSCQARVTDEDLVVEIPRYTINHAREH
modifications: [2Fe-2S] cluster bound (holo); 15N labelled
notes: as for B3
On to B4, for which, in assay [4], the binding result is on record as “binds”.
